Molecular target: LARP1 DM15 F844Y/R847E (FYRE) (Homo sapiens, UniProt Q6PKG0-3 796-946, F844Y;R847E)
Test: EMSA

B1: m7Gppp-non-TOP (+1G) RPS6 20-mer (ssRNA)
RNA: GCUCUUUUCCGUGGCGCCUC
modifications: 5' m7Gppp cap (vaccinia capping enzyme)
B1: binds.

— publication PMC7269035
